Test results from article PMC12788653 (PLOS Pathogens, 2025).

Target: the molecule itself
Test: SEC

B1: recombinant A/WSN/1933 (H1N1) NP, NΔ7NP with C-terminal His tag (WT) (natural protein)
chain: RSYEQMETDGERQNATEIRASVGKMIGGIGRFYIQMCTELKLSDYEGRLIQNSLTIERMVLSAFDERRNKYLEEHPSAGKDPKKTGGPIYRRVDGKWMRELILYDKEEIRRIWRQANNGDDATAGLTHMMIWHSNLNDATYQRTRALVRTGMDPRMCSLMQGSTLPRRSGAAGAAVKGVGTMVMELIRMIKRGINDRNFWRGENGRRTRIAYERMCNILKGKFQTAAQRAMVDQVRESRNPGNAEFEDLIFLARSALILRGSVAHKSCLPACVYGPAVASGYDFEREGYSLVGIDPFRLLQNSQVYSLIRPNENPAHKSQLVWMACHSAAFEDLRVSSFIRGTKVVPRGKLSTRGVQIASNENMETMESSTLELRSRYWAIRTRSGGNTNQQRASSGQISIQPTFSVQRNLPFDRPTIMAAFTGNTEGRTSDMRTEIIRLMESARPEDVSFQGRGVFELSDEKAASPIVPSFDMSNEGSYFFGDNAEEYDN
notes: also called WT NP; pET28a-NΔ7NP
binding result: binds
